Data on 64 variants can be found in the RNAGym collection of RNA variant scans (doi:10.7554/elife.80360).

B1: HDV Ribozyme (parent)
chain: GGCCGGCAUGGUCCCAGCCUCCUCGCUGGCGCCGGCUGGGCAACAUUCCGAGGGGACCGUCCCCUCGGUAAUGGCGAAUGGGACCCA

The data set covers variants of B1. Nature of the data set: self-cleavage, relative activity (ratio to wild type); higher = more cleavage; co-transcriptional.
Regarding GGACGGCAUGGUCCCAGCCUCCUCGCUGGCGCCGGCUGGGCAACAUUCCGAGGGGACCGUCCCCCCGGUAAUGGCGAAUGGGACCCA, the self-cleavage was 0.602.

For GGACGGCAUGGUCCCAGCCUCCUCGCUGGCGCCGGCUGGGCAACAUUCCGAGGGGACCGUCCCCACGGUAAUGGCGAAUGGGACCCA, the self-cleavage amounted to 0.641.

Take GGGCGGCAUGGUCCCAGCCUCCUCGCUGGCGCCGGCUGGGCAACAUUCCGAGGGGACCGUCCCCUCGGUAAUGGCGAGUGGGACCCA: the self-cleavage worked out at 0.151.

Consider GGACGGCAUGGUCCCAGCCUCCUCGCUGGCGCCGGCUGGGCAACAUUCCGAGGGGACCGUCCCCUCGUUAAUGGCGAAUGGGACCCA, for which the self-cleavage was determined as 0.465.

Take GGACGGCACGGUCCCAGCCUCCUCGCUGGCGCCGGCUGGGCAACAUUCCGAGGGGACCGUCCCCUCGGUAAUGGCGAAUGGGACCCA: the self-cleavage was determined as 0.381.

On to GGACGGCAUGGUCCCAGCCUCCUCGCUGGCGCCGGCUGGGCAACAUUCCGAGGGGACCGUCCCCUCGGCAAUGGCGAAUGGGACCCA, for which the self-cleavage is 0.665.

Regarding GGACGGCAUGGUCCCAGCCUCCUCGCUGGCGCCGGCUGGGCAACAUCCCGAGGGGACCGUCCCCUCGGUAAUGGCGAAUGGGACCCA, the self-cleavage is 0.422.

For the variant GGACGGCAUGGUCCCAGCCUCCUCGCUGGCGCCGGCUGGGCAACAUUCCGAGGGGACCGUCCCCUCGGUAAUGACGAAUGGGACCCA, the self-cleavage was 0.0326.

For the variant GGACGGCAUGGUCCCAGCCUCCUCGCUGGCGCCGGCUGGGCAACAUUCCGAGGGGACCGUCCCCUCGGUAAUGUCGAAUGGGACCCA, the self-cleavage came out at 0.156.

As to GGGCGGCAUGGUCCCAGCCUCCUCGCUGGCGCCGACUGGGCAACAUUCCGAGGGGACCGUCCCCUCGGUAAUGGCGAAUGGGACCCA, the self-cleavage was determined as 1.08.

As for GGGCGGCAUGGUCCCAGCCUCCUCGCUGGCGCCGGCUGGUCAACAUUCCGAGGGGACCGUCCCCUCGGUAAUGGCGAAUGGGACCCA, the self-cleavage was 0.442.

Consider GGGCGGCAUGGUCCCAGCCUUCUCGCUGGCGCCGGCUGGGCAACAUUCCGAGGGGACCGUCCCCUCGGUAAUGGCGAAUGGGACCCA, for which the self-cleavage is 0.0326.

Take GGGCGGCAUCGUCCCAGCCUCCUCGCUGGCGCCGGCUGGGCAACAUUCCGAGGGGACCGUCCCCUCGGUAAUGGCGAAUGGGACCCA: the self-cleavage turned out to be 0.151.

As to GGGCGGCAUGGUCCCAGCAUCCUCGCUGGCGCCGGCUGGGCAACAUUCCGAGGGGACCGUCCCCUCGGUAAUGGCGAAUGGGACCCA, the self-cleavage stood at 0.0594.

As for GGACGGCAUGGUCCCAGCCUCCUCGCUGGCGCCGGCUGGGCAACAUUCCGAGGGGACCGUCCCCUCGGUAAUGGCGAAUAGGACCCA, the self-cleavage was 0.175.

Consider GGGCGGCAUGGUCCCAGCCUCCUCGCUGGCGCCGGCUGGGCAACAUUCCGAGCGGACCGUCCCCUCGGUAAUGGCGAAUGGGACCCA, for which the self-cleavage amounted to 0.609.

Take GGGCGGCAUGGUCACAGCCUCCUCGCUGGCGCCGGCUGGGCAACAUUCCGAGGGGACCGUCCCCUCGGUAAUGGCGAAUGGGACCCA: the self-cleavage came out at 0.383.

Regarding GGGCGGCAUGGUCCCAGCCUCCUCGCUGGCGCCGGCUGGGCAACAUUCCGAGGGGAACGUCCCCUCGGUAAUGGCGAAUGGGACCCA, the self-cleavage is 0.802.

Take GGACGGCAUGGUCCCAGCCUCCUCGCUGGCGCCGGCUGGGCAACAUUCCGAGGGGACCGUCCCCUCGGUAACGGCGAAUGGGACCCA: the self-cleavage came out at 0.198.

Regarding GGACGGCAUGGUCCCAGCCUCCUCGCUGGCGCCGGCUGGGCAACAUUCCGAGGGGACCGUCCCCUCGGUAAGGGCGAAUGGGACCCA, the self-cleavage worked out at 0.0712.

Take GGGCGGCAUGGUCCCAGCCUCCUCGCUGACGCCGGCUGGGCAACAUUCCGAGGGGACCGUCCCCUCGGUAAUGGCGAAUGGGACCCA: the self-cleavage is 0.106.

As for GGACGGCAUGGUCCCAGCCUCCUCGCUGGCGCCGGCUGGGCAACAUUCCGAGGGGACCGUCCCCUCGGUAAUGGCGAACGGGACCCA, the self-cleavage is 0.106.

Turning to GGACGGCAUGGUCCCAGCCUCCUCGCUGGCGCCGGCUGGGCAACAUUCCGAGGGGACCGUCCCCUCGGUAAUGGCGAAGGGGACCCA, the self-cleavage worked out at 0.175.

Take GGACGGCAUGGUCCCAGCCUCCUCGCUGGCGCCGGCUGGGCAACAUUCCGAGGGGACCGUCCCCUCGGUAAUGGCGAAAGGGACCCA: the self-cleavage came to 0.175.

Turning to GGGCGGCAUGGUCCCAGCCUCCUCGCUGGCGCCGGGUGGGCAACAUUCCGAGGGGACCGUCCCCUCGGUAAUGGCGAAUGGGACCCA, the self-cleavage worked out at 0.0343.

Take GGGCGCCAUGGUCCCAGCCUCCUCGCUGGCGCCGGCUGGGCAACAUUCCGAGGGGACCGUCCCCUCGGUAAUGGCGAAUGGGACCCA: the self-cleavage was found to be 0.0475.

In the case of GGGCGGCAUGGUCCCGGCCUCCUCGCUGGCGCCGGCUGGGCAACAUUCCGAGGGGACCGUCCCCUCGGUAAUGGCGAAUGGGACCCA, the self-cleavage came out at 0.408.

As for GGGCGGCAUGGUCCCAGCCUCCUCGCUGGCGCCGGCUGGGCAACAUUCCUAGGGGACCGUCCCCUCGGUAAUGGCGAAUGGGACCCA, the self-cleavage is 0.665.

For the variant GGACGGCAUGGUCCCAGCCCCCUCGCUGGCGCCGGCUGGGCAACAUUCCGAGGGGACCGUCCCCUCGGUAAUGGCGAAUGGGACCCA, the self-cleavage was found to be 0.108.

On to GGGCGGCAUGUUCCCAGCCUCCUCGCUGGCGCCGGCUGGGCAACAUUCCGAGGGGACCGUCCCCUCGGUAAUGGCGAAUGGGACCCA, for which the self-cleavage came out at 0.0683.

On to GGGCGGCAUGGUCCCAGCCUCCUCGCUGGCGCCGGCUGGGCAACAUUCCGGGGGGACCGUCCCCUCGGUAAUGGCGAAUGGGACCCA, for which the self-cleavage was 0.746.

Consider GGACGGCAUGGUCCCAGCCUCCGCGCUGGCGCCGGCUGGGCAACAUUCCGAGGGGACCGUCCCCUCGGUAAUGGCGAAUGGGACCCA, for which the self-cleavage was 0.352.

Consider GGGCUGCAUGGUCCCAGCCUCCUCGCUGGCGCCGGCUGGGCAACAUUCCGAGGGGACCGUCCCCUCGGUAAUGGCGAAUGGGACCCA, for which the self-cleavage was 0.119.

Consider GGGCGGCAUGGUCCCAGCCUCCUCGCUGGCGCCGGCUGUGCAACAUUCCGAGGGGACCGUCCCCUCGGUAAUGGCGAAUGGGACCCA, for which the self-cleavage was found to be 0.0989.

Regarding GGGCGGCAUGGUCCCAGCCUCCUCGCUGGCGCCGGCUGGGCAACAUUCCGAGGGGACCGUCCCCUCGGUAAUGGCGAAUGGGACCCU, the self-cleavage was found to be 0.875.

Turning to GGGCGGCAUGGUCCCAGCCUCCUCGCUGGCGCCGGCUGGGCAACAUUCCGAGGGGACCGUCCCCUCGGUAAUGGCGAAUGGGACGCA, the self-cleavage was determined as 0.774.

As to GGGCGGCAUGGUCCCAGCCUCCUCGCUGGCGCCGGCUGGGCAACAUUCCGAGGGGACUGUCCCCUCGGUAAUGGCGAAUGGGACCCA, the self-cleavage came to 0.709.

Regarding GGGCGGCAUGGUCCCAGCCUCCUCGCUGGCGCCGGCUGGGCAACAUUCCGAGGGGACAGUCCCCUCGGUAAUGGCGAAUGGGACCCA, the self-cleavage is 0.842.

For the variant GGGCGGCAUGGUCCCAGCCUCCUCGCUGGCGCCGGCUGGGCAAAAUUCCGAGGGGACCGUCCCCUCGGUAAUGGCGAAUGGGACCCA, the self-cleavage came to 0.312.

With GGGCGGCAUGGUUCCAGCCUCCUCGCUGGCGCCGGCUGGGCAACAUUCCGAGGGGACCGUCCCCUCGGUAAUGGCGAAUGGGACCCA, the self-cleavage stood at 0.229.

Turning to GGGCGGCAUGGUCCCAGCCUCCUCGCUGGCGCCGGCUGGGCAACAUUCCGAGGGGACCGUCCCCUCGGUAUUGGCGAAUGGGACCCA, the self-cleavage was determined as 0.502.

Take GGGCGGCAUGGUCCCAGCCUCCUCGCUGGCGCCGGCUGGGCAACAUUCCGAGGGGACCGUCCCCUCGGUAGUGGCGAAUGGGACCCA: the self-cleavage was 0.631.

On to GGGCGGCAUGGUCCCAGCCUCCUCGCUGGCGCCGGCUGGGCAACAUUCCGAGGGGACCGUCCCCUCGGUAAUGGCGAAUGGGAACCA, for which the self-cleavage amounted to 0.564.

GGGCGGCAUGGUCCCAGCCUCCUCGCUGGGGCCGGCUGGGCAACAUUCCGAGGGGACCGUCCCCUCGGUAAUGGCGAAUGGGACCCA: the self-cleavage turned out to be 0.0594.

Take GGGCGGCAUGGUCCCAGCCUCCUCGCUGGAGCCGGCUGGGCAACAUUCCGAGGGGACCGUCCCCUCGGUAAUGGCGAAUGGGACCCA: the self-cleavage amounted to 0.0639.

On to GGGCGGCAUGGUCCCAGCCUCCUCGCUGGCGCCGGCUGGGCAACAUUCCGAGGGGACCGUUCCCUCGGUAAUGGCGAAUGGGACCCA, for which the self-cleavage came to 0.729.

For the variant GGGCGGCAUGGUCCCAGCCUCCUCGCUGGCGCCGGCUGGGCAACAUUCCGAGGGGACCGUACCCUCGGUAAUGGCGAAUGGGACCCA, the self-cleavage is 0.87.

As for GGGCGGCAUGGUCCCAGCCUCCUCGCUGGCGCCAGCUGGGCAACAUUCCGAGGGGACCGUCCCCUCGGUAAUGGCGAAUGGGACCCA, the self-cleavage is 0.229.

In the case of GGGCGGCAUGGUCCCAGCCUCCUCGCUGGCGCCCGCUGGGCAACAUUCCGAGGGGACCGUCCCCUCGGUAAUGGCGAAUGGGACCCA, the self-cleavage came out at 0.192.

Consider GGACGGCAUGGUCCCAGCCUCCUCGCUGGCGCCGGCUGGGCAACAAUCCGAGGGGACCGUCCCCUCGGUAAUGGCGAAUGGGACCCA, for which the self-cleavage worked out at 0.148.

With GGACGGCAUGGUCCCAGCCUCCUCGCUGGCGCCGGCUGGGCAACAUUCCGAGGGGACCGGCCCCUCGGUAAUGGCGAAUGGGACCCA, the self-cleavage came out at 0.471.

In the case of GGGCGGCAUGGUCCCAGCCUCCUCGCUGGCGCCGGCUGGGCAACAUUCCGAGGGGACCGUCCCCUCGGUAAUGGCGAAUGGGUCCCA, the self-cleavage was 0.0678.

GGGCGGCAUGGUCCCAGCCUCCUCGCUGGCGCCGGCUCGGCAACAUUCCGAGGGGACCGUCCCCUCGGUAAUGGCGAAUGGGACCCA: the self-cleavage came out at 0.192.

For GGGCGGCAUGGUCCCAGCCUCCUCGCUGGCGCCGGCUAGGCAACAUUCCGAGGGGACCGUCCCCUCGGUAAUGGCGAAUGGGACCCA, the self-cleavage was found to be 0.0386.

As for GGGCGGCAUGGUCCCAGCCUCCUCUCUGGCGCCGGCUGGGCAACAUUCCGAGGGGACCGUCCCCUCGGUAAUGGCGAAUGGGACCCA, the self-cleavage worked out at 0.0277.

As to GGGCGGCAUGGUCCCAGCCUCCUCGCUGGCGCCGGCUGGGCAACAUUCCGAGGGGACCGUCCCCUCGGUAAUGGCGCAUGGGACCCA, the self-cleavage worked out at 0.233.

Turning to GGGCGGCAUGGUCCCAGCCUCCUCGCUGGCGCCGGCUGGGCAACAUUCCGAGGGGUCCGUCCCCUCGGUAAUGGCGAAUGGGACCCA, the self-cleavage amounted to 0.769.

GGGCGGCAUGGUCCCAGCCUCCUCGCUGGCGCCGGCUGGGCAACAUUCCGAGGGGACCGUCCCCUUGGUAAUGGCGAAUGGGACCCA: the self-cleavage came out at 0.715.

Turning to GGGCGGCAUGGUCCCAGCCUCCUCGCUGGCGCCGGCUGGGCAACAUUCCGAGGGGACCGUCCCCUGGGUAAUGGCGAAUGGGACCCA, the self-cleavage is 0.761.

In the case of GGGCGGCAUGGUCCCAGCCUCCUCGCUGGCUCCGGCUGGGCAACAUUCCGAGGGGACCGUCCCCUCGGUAAUGGCGAAUGGGACCCA, the self-cleavage is 0.0739.

Consider GGGCGGCAUGGUCCCAGCCUCCUCGCUGGCGCCGGCUGGGCAACAUUCCGAGGGGACCGUCCCCUCGGUAAUGGAGAAUGGGACCCA, for which the self-cleavage worked out at 0.119.

Regarding GGACGGCAUGGACCCAGCCUCCUCGCUGGCGCCGGCUGGGCAACAUUCCGAGGGGACCGUCCCCUCGGUAAUGGCGAAUGGGACCCA, the self-cleavage was 0.0848.

With GGACGGCAUGGGCCCAGCCUCCUCGCUGGCGCCGGCUGGGCAACAUUCCGAGGGGACCGUCCCCUCGGUAAUGGCGAAUGGGACCCA, the self-cleavage is 0.241.

On to GGGCGGCCUGGUCCCAGCCUCCUCGCUGGCGCCGGCUGGGCAACAUUCCGAGGGGACCGUCCCCUCGGUAAUGGCGAAUGGGACCCA, for which the self-cleavage was determined as 0.293.
